Results as given in patent US20170233451A1.

Biological target: human PD-L1 on cells (IFN-gamma-induced SK-MEL-28 melanoma cells; CT26-Tg(hPD-L1)-delta(mPD-L1) cells and tumors) (human) (UniProt Q9NZQ7)
Experiment: flow cytometry of a dissociated CT26 hPD-L1 positive tumor four hours after intraperitoneal injection of both labeled agents; same quadrant of the PD-L1 negative tumor: 3.97

human PD-L1 on cells (IFN-gamma-induced SK-MEL-28 melanoma cells; CT26-Tg(hPD-L1)-delta(mPD-L1) cells and tumors) (human), sequence (Q9NZQ7 19-290 limits assumed, stated change not applied): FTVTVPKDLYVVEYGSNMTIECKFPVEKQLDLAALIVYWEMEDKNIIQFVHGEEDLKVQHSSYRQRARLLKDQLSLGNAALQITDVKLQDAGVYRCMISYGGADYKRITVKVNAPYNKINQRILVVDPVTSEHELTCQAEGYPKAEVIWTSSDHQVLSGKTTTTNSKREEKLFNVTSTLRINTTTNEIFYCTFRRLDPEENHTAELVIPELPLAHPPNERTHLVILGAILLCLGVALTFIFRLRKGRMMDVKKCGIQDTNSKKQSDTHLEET

% of cells in the quadrant Anti-hPD-L1 488 positive, HAC 594 negative (lower right): 2.22%
Substance: AlexaFluor488-labeled anti-PD-L1 antibody (clone 29E.2A3, BioLegend)
